Source: PMC6307458, “Inhibition of Inflammatory Changes in Human Myometrial Cells by Cell Penetrating Peptide and Small Molecule Inhibitors of NFκB” (Frontiers in Immunology, 2018)

System: human myometrial cells
Assay: Live cell confocal microscopy, delivery of rhodamine cargo
Conditions: live cell spinning disk confocal microscopy; primary human myometrial cells; 1, 3 and 10 μM; 60 min; 37°C, 5% CO2; serum-reduced media (0.1% FCS); 3 independent experiments
Description: Cells were washed in phosphate buffered saline and changed to serum-reduced media (0.1%FCS) for 18–24 h ([39]).
Initial images were collected to assess baseline cellular auto-fluorescence prior to the addition of varying concentrations of fluorophore-CPP/fluorophore- CPP-Cargo/fluorophore-control peptide combinations (see Table 1) that were ready made up in serum-reduced cell media. Further images were captured 60 min following application.
To make a thorough assessment of fluorescent uptake throughout whole cells, all images were captured as a series of slices in the Z plane (range 3–10 slices per area selected, each slice 0.54 μm apart) with the 40x objective using live cell spinning disk confocal microscopy (Andor Revolution XD coupled to an Olympus IX-81 inverted microscope; Andor Belfast UK). All images were digitally recorded with IQ2 software (Andor, Belfast, UK).

Row | Substance | delivery of rhodamine fluorophore internal to the cells
1 | Rhodamine–RQIKIWFQNRRMKWKK [Penetratin, conjugated to rhodamine] | able to enter uterine cells
2 | Rhodamine-RQIKIWFQNRRMKW-Aca- TALDWSWLQTE [rhodamine Pen(43-56)–NBD] | demonstrated ability to enter myometrial cells
